According to FireProtDB (doi:10.1021/bi00066a003):
Where “and” joins values, the source holds several entries; their conditions need not be identical. Equal values may be shown once.

B1: Phosphoglycerate kinase, P18912 (parent)
chain: MNKKTIRDVDVRGKRVFCRVDFNVPMEQGAITDDTRIRAALPTIRYLIEHGAKVILASHLGRPKGKVVEELRLDAVAKRLGELLERPVAKTNEAVGDEVKAAVDRLNEGDVLLLENVRFYPGEEKNDPELAKAFAELADLYVNDAFGAAHRAHASTEGIAHYLPAVAGFLMEKELEVLGKALSNPDRPFTAIIGGAKVKDKIGVIDNLLEKVDNLIIGGGLAYTFVKALGHDVGKSLLEEDKIELAKSFMEKAKEKGVRFYMPVDVVVADRFANDANTKVVPIDAIPADWSALDIGPKTRELYRDVIRESKLVVWNGPMGVFEMDAFAHGTKAIAEALAEALDTYSVIGGGDSAAAVEKFGLADKMDHISTGGGASLEFMEGKQLPGVVALEDK

Variants of: B1
Details: Geobacillus stearothermophilus, pH 7.5, 25 °C, Fluorescence, TEA 50 mM, reversible: yes, structure 1PHP, whole UniProt chain shown

Variant	unfolding free energy (GdnHCl, transition: 4)	unfolding free energy (Urea, transition: 4)	unfolding free energy (GdnHCl, transition: 3)	unfolding free energy (Urea, transition: 3)
MNKKTIRDVDVRGKRVFCRVDFNVPMEQGAITDDTRIRAALPTIRYLIEHGAKVILASHLGRPKGKVVEELRLDAVAKRLGELLERPVAKTNEAVGDEVKAAVDRLNEGDVLLLENVRFYPGEEKNDPELAKAFAELADLYVNDAFGAAHRAHASTEGIAHYLPAVAGFLMEKELEVLGKALSNPDRPFTAIIGGAKVKDKIGVIDNLLEKVDNLIIGGGLAYTFVKALGHDVGKSLLEEDKIELAKSFMEKAKEKGVRFYMPVDVVVADRFANDANTKVVPIDAIPADYSALDIGPKTRELYRDVIRESKLVVYNGPMGVFEMDAFAHGTKAIAEALAEALDTYSVIGGGDSAAAVEKFGLADKMDHISTGGGASLEWMEGKQLPGVVALEDK [W290Y W315Y F379W]	4.95 kcal/mol and 10.8 kcal/mol and 8.93 kcal/mol	3.77 kcal/mol and 10.8 kcal/mol and 8.15 kcal/mol	–	–
MNKKTIRDVDVRGKRVFCRVDFNVPMEQGAITDDTRIRAALPTIRYLIEHGAKVILASHLGRPKGKVVEELRLDAVAKRLGELLERPVAKTNEAVGDEVKAAVDRLNEGDVLLLENVRFYPGEEKNDPELAKAFAELADLYVNDAFGAAHRAHASTEGIAHYLPAVAGFLMEKELEVLGKALSNPDRPFTAIIGGAKVKDKIGVIDNLLEKVDNLIIGGGLAYTFVKALGHDVGKSLLEEDKIELAKSFMEKAKEKGVRFYMPVDVVVADRFANDANTKVVPIDAIPADYSALDIGPKTRELYRDVIRESKLVVWNGPMGVFEMDAFAHGTKAIAEALAEALDTYSVIGGGDSAAAVEKFGLADKMDHISTGGGASLEFMEGKQLPGVVALEDK [W290Y]	–	–	11.4 kcal/mol and 8.2 kcal/mol	8.15 kcal/mol
